Laboratory results taken from PMC10464462.

Target: His-E-cadherin fusion protein (UniProt P12830)
Assay: MST; RED-NHS-labelled His-E-cadherin at constant concentration (1 µM) with 2-fold serial dilutions of GST-KRT18 in MST-optimized buffer; 15 min at room temperature; Monolith NT.115; 20 and 40% MST power

UniProt P12830, sequence (P12830 155-882): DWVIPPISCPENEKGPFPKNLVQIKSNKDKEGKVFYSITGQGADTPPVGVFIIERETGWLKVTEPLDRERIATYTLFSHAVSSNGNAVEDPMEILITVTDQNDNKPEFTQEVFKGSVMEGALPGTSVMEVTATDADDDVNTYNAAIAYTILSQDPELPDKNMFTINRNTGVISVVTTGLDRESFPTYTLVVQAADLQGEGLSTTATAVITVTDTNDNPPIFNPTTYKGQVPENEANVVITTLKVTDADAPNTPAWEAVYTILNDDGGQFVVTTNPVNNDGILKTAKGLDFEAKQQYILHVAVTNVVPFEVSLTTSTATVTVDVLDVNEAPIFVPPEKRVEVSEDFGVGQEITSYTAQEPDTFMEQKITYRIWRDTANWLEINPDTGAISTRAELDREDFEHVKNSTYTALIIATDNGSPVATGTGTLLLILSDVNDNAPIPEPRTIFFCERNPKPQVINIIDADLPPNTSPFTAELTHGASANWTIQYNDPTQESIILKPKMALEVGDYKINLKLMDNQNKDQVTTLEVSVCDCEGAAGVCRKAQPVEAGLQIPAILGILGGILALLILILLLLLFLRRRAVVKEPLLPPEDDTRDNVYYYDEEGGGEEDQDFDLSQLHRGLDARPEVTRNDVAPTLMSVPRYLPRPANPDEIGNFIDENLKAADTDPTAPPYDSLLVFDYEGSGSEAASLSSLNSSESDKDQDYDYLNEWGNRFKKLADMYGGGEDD

B1: GST-KRT18 fusion protein (natural protein)
chain: MSFTTRSTFSTNYRSLGSVQAPSYGARPVSSAASVYAGAGGSGSRISVSRSTSFRGGMGSGGLATGIAGGLAGMGGIQNEKETMQSLNDRLASYLDRVRSLETENRRLESKIREHLEKKGPQVRDWSHYFKIIEDLRAQIFANTVDNARIVLQIDNARLAADDFRVKYETELAMRQSVENDIHGLRKVIDDTNITRLQLETEIEALKEELLFMKKNHEEEVKGLQAQIASSGLTVEVDAPKSQDLAKIMADIRAQYDELARKNREELDKYWSQQIEESTTVVTTQSAEVGAAETTLTELRRTVQSLEIDLDSMRNLKASLENSLREVEARYALQMEQLNGILLHLESELAQTRAEGQRQAQEYEALLNIKVKLEAEIATYRRLLEDGEDFNLGDALDSSNSMQTIQKTTTRRIVDGKVVSETNDTKVLRH
Kd: 5.6 µM
